Columns and labels:
Assay in all cases: inhibition of transduction of human primary myotubes by virus pre-incubated with recombinant soluble integrin (affinity as inferred by the filing)
[1] = molecular target: T1, recombinant soluble human integrin heterodimer αVβ1 (human, UniProt P06756 31-992; P05556 21-728)
T1 construct: Bought (R&D Systems); also called αVβ1 recombinant protein; αVb1

[2] = molecular target: T2, recombinant soluble human integrin heterodimer αVβ8 (human, UniProt P06756 31-992; P26012 43-684)
T2 construct: Bought (R&D Systems); also called αVβ8 recombinant protein; αVb8

[3] = molecular target: T3, recombinant soluble human integrin heterodimer αVβ3 (human, UniProt P06756 31-992; P05106 27-718)
T3 construct: Bought (R&D Systems); also called αVβ3 recombinant protein; αVb3

[4] = molecular target: T4, recombinant soluble human integrin heterodimer αVβ6 (human, UniProt P06756 31-992; P18564 22-707)
T4 construct: Bought (R&D Systems); also called αVβ6 recombinant protein; αVb6

Measured: binding result

T3 sequence (P06756 31-992 limits assumed, chain 1 of 2): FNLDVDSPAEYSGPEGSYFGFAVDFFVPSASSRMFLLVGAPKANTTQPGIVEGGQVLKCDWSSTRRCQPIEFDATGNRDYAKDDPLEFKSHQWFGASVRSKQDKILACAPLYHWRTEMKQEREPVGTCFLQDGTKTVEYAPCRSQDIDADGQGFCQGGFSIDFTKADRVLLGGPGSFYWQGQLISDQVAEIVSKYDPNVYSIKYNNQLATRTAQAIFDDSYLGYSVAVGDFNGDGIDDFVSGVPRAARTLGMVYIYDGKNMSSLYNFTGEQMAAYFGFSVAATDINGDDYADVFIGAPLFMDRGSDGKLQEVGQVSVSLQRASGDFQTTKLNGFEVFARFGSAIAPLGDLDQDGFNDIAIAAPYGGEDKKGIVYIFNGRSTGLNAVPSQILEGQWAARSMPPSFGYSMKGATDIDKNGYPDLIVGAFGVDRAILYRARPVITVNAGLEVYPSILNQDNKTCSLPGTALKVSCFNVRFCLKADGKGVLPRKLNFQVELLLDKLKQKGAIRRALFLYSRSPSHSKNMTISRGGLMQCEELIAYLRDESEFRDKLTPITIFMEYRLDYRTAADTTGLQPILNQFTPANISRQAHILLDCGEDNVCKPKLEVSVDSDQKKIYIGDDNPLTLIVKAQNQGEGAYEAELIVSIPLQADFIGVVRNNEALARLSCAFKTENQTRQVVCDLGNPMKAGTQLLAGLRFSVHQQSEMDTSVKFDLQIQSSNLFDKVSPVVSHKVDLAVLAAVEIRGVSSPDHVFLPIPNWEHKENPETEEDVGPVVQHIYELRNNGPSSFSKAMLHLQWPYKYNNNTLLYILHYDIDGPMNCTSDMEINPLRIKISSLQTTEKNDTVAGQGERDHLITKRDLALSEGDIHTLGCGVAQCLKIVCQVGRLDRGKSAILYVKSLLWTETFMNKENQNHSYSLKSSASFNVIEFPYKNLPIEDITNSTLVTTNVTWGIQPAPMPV
T3 sequence (P05106 27-718 limits assumed, chain 2 of 2): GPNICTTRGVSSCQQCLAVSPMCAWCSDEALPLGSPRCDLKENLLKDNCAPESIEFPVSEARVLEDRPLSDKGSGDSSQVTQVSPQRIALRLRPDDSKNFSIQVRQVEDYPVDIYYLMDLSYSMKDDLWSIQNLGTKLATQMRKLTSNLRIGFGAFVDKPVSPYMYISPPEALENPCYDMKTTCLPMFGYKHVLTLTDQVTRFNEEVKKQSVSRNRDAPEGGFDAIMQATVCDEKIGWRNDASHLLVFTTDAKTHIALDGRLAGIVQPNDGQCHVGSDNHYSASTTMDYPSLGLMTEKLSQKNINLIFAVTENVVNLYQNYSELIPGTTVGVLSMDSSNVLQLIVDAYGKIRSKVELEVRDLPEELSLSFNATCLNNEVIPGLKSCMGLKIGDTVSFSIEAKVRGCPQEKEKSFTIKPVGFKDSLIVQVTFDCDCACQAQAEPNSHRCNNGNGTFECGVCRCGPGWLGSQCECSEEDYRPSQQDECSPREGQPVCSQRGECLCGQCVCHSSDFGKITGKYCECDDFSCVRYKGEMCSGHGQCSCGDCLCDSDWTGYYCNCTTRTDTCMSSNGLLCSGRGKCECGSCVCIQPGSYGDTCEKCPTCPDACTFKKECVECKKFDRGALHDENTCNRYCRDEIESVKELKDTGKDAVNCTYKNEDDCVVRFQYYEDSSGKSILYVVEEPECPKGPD
T1 sequence (P06756 31-992 limits assumed, chain 1 of 2): as the sequence (P06756 31-992 limits assumed, chain 1 of 2) above
T1 sequence (P05556 21-728 limits assumed, chain 2 of 2): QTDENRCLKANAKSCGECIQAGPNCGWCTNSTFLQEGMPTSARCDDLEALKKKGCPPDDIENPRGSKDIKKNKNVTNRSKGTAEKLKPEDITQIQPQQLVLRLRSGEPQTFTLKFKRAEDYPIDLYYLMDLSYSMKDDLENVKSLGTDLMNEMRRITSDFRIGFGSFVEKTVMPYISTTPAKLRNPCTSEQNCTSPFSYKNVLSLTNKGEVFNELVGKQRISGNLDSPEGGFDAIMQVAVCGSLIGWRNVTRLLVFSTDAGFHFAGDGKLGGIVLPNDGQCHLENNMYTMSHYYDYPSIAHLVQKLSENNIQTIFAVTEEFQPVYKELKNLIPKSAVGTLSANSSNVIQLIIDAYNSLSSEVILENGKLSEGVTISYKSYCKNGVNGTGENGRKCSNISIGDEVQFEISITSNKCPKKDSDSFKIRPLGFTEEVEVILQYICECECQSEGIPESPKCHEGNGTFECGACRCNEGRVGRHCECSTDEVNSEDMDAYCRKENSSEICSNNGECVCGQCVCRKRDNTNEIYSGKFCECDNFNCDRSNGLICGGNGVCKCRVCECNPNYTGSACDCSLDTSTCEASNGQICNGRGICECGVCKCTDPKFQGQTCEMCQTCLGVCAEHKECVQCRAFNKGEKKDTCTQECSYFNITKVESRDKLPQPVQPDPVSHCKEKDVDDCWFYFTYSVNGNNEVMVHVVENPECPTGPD
T4 sequence (P06756 31-992 limits assumed, chain 1 of 2): as the sequence (P06756 31-992 limits assumed, chain 1 of 2) above
T4 sequence (P18564 22-707 limits assumed, chain 2 of 2): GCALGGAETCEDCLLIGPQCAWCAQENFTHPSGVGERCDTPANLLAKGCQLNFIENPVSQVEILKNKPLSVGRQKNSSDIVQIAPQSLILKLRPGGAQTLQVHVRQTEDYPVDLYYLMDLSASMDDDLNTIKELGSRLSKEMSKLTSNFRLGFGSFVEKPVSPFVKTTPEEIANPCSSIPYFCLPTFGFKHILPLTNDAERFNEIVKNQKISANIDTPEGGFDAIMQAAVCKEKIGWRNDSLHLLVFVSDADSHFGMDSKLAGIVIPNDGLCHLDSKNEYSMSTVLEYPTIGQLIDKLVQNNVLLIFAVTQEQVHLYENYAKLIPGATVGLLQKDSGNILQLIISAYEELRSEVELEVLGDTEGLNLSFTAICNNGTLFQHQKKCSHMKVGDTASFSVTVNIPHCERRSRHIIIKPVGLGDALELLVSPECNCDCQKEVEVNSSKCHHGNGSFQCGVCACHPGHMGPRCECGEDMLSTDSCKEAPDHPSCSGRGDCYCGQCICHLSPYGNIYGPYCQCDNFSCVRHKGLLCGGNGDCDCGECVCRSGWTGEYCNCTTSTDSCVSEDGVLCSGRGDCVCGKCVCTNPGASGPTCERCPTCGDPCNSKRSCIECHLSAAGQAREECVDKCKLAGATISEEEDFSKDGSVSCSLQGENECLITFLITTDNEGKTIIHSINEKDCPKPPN
T2 sequence (P06756 31-992 limits assumed, chain 1 of 2): as the sequence (P06756 31-992 limits assumed, chain 1 of 2) above
T2 sequence (P26012 43-684 limits assumed, chain 2 of 2): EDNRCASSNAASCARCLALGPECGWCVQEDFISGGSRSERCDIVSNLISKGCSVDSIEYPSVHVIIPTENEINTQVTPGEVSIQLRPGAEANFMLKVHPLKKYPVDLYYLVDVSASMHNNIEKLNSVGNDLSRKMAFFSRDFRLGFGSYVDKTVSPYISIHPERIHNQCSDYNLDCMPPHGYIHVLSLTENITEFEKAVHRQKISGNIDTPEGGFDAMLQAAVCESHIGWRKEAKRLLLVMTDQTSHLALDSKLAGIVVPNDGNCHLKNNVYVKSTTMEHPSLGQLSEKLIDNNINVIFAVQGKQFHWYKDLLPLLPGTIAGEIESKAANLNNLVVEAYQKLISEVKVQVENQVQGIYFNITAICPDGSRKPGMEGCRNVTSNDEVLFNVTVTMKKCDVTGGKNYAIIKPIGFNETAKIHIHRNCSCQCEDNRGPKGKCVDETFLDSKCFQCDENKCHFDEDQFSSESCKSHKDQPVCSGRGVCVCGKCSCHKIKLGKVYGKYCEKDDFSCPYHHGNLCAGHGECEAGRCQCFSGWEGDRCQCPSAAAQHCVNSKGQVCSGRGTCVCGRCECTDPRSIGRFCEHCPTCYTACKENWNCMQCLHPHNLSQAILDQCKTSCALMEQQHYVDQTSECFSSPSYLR

B1: MyoAAV 2A (other)
chain: MAADGYLPDWLEDNLSEGIREWWALKPGAPQPKANQQHQDNARGLVLPGYKYLGPGNGLDKGEPVNAADAAALEHDKAYDQQLKAGDNPYLKYNHADAEFQERLKEDTSFGGNLGRAVFQAKKRLLEPLGLVEEAAKTAPGKKRPVEQSPQEPDSSAGIGKSGAQPAKKRLNFGQTGDTESVPDPQPIGEPPAAPSGVGSLTMASGGGAPVADNNEGADGVGSSSGNWHCDSQWLGDRVITTSTRTWALPTYNNHLYKQISNSTSGGSSNDNAYFGYSTPWGYFDFNRFHCHFSPRDWQRLINNNWGFRPKRLNFKLFNIQVKEVTDNNGVKTIANNLTSTVQVFTDSDYQLPYVLGSAHEGCLPPFPADVFMIPQYGYLTLNDGSQAVGRSSFYCLEYFPSQMLRTGNNFQFSYEFENVPFHSSYAHSQSLDRLMNPLIDQYLYYLSKTINGSGQNQQTLKFSVAGPSNMAVQGRNYIPGPSYRQQRVSTTVTQNNNSEFAWPGASSWALNGRNSLMNPGPAMASHKEGEDRFFPLSGSLIFGKQGTGRDNVDADKVMITNEEEIKTTNPVATESYGQVATNHQGPGRGDQTTLAQAQTGWVQNQGILPGMVWQDRDVYLQGPIWAKIPHTDGNFHPSPLMGGFGMKHPPPQILIKNTPVPADPPTAFNKDKLNSFITQYSTGQVSVEIEWELQKENSKRWNPEIQYTSNYYKSNNVEFAVNTEGVYSEPRPIGTRYLTRNL
notes: Recombinant AAV particle; also called EMyoAAV; enhanced MyoAAV
binds: all assays above

Reference: patent publication US20250090688A1 (BROAD INSTITUTE, published 2025)
